# Reference: patent US20230416363A1 (KADMON, published 2023)
# Changes are numbered by the printed parent chain.
# B1: 32A11 (antibody, V domains shown)
# VH: EVQLLESGGGLVQPGGSLRLSCAASGFTFSSYWMSWVRQAPGKGLEWVSAISGSGGSTYYADSVKGRFTISRDNSKNTLYLQMNSLRAEDTAVYYCASSPLQWVDVWGQGTTVTVSS
# VL: DIQMTQSPSSLSASVGDRVTITCRASESISIWLAWYQQKPGKAPKLLIYDASNLETGVPSRFSGSGSGTNFTLTISSLQPEDFATYYCQQADSFPFTFGPGTKVDIK
# B2: 32D2 (antibody, V domains shown)
# VH: B1 VH
# VL: B1 VL with E27Q, S28G, I31R, D50E, N53T, E55Q, T56S, N70D, D92Y, P100Q
# B3: 32D11 (antibody, V domains shown)
# VH: B1 VH
# VL: B1 VL with E27Q, S30N, N70D, A91G, D92Y
# B4: 38A10 (antibody, V domains shown)
# VH: B1 VH
# VL: B1 VL with E27Q, I31T, N53R, E55Q, T56N, N70D, A91G
# B5: 38A11 (antibody, V domains shown)
# VH: B1 VH
# VL: B1 VL with E27Q, I31S, N53T, E55Q, T56S, N70D, A91G, D92N
# B6: 38C11 (antibody, V domains shown)
# VH: B1 VH
# VL: B1 VL with E27Q, I31R, Y49S, N53T, L54V, E55Q, T56S, N70D, D92N
# B7: 39B3 (antibody, V domains shown)
# VH: B1 VH
# VL: B1 VL with E27Q, S30G, I31P, N70D, D92N
# B8: 39B11 (antibody, V domains shown)
# VH: B1 VH
# VL: B1 VL with E27Q, I31S, D50E, N53R, E55Q, T56S, N70D, D92N
# B9: 39G8 (antibody, V domains shown)
# VH: B1 VH
# VL: B1 VL with E27Q, S28G, I31P, N53K, N70D, D92Y, P100G, D105E
# B10: 23A8 (antibody, human IgG1, V domains shown)
# VH: EVQLLESGGGLVQPGGSLRLSCAASGFTFSSSAMHWVRQAPGKGLEWVSGISGSGSSTYYADSVKGRFTISRDNSKNTLYLQMNSLRAEDTAVYYCARDNNYYYYMDVWGKGTTVTVSS
# VL: DIQMTQSPSSLSASVGDRVTITCRASQSIGTWLAWYQQKPGKAPKLLIYAASTLRSGVPSRFSGSGSGTDFTLTISSLQPEDFATYYCQQSYSTPYTFGQGTKLEIK
# B11: 19B6 (antibody, V domains shown)
# VH: QVQLVQSGAEVKKPGASVKVSCKASGYTFTGYYMHWVRQAPGQGLEWMGIINPSGGSTSYAQKFQGRVTMTRDTSTSTVYMELSSLRSEDTAVYYCAKTAGYDWLPSGLGMDVWGQGTTVTVSS
# VL: B10 VL with G30N, T31S, A50Y, T53S, R55Q, S91G, T94V, Y96L, T97S
# B12: 23A11 (antibody, human IgG1, V domains shown)
# VH: QVQLVQSGAEVKKPGSSVKVSCKASGYTFTDYSLHWVRQAPGQGLEWMGEVIPMFDTAYYAQTFQGRVTITADESTSTAYMELSSLRSEDTAVYYCAREPFTMVRGGRYYYYGMDVWGQGTTVTVSS
# VL: DIQMTQSPSSLSASVGDRVTITCRASQNINKNLNWYQQKPGKAPKLLIYDASNLQSGVPSRFSGSGSGTDFTLTISSLQPEDFATYYCQHSETFGQGTKVEIK
# B13: 19B10 (antibody, human IgG1, V domains shown)
# VH: EVQLLESGGGLVQPGGSLRLSCAASGFTFSSYAMHWVRQAPGKGLEWVSGISNSGGNTYYADSVKGRFTISRDNSKNTLYLQMNSLRAEDTAVYYCARDNYYYYMDVWGKGTTVTVSS
# VL: B10 VL with I29V, G30S, T53N, R55E, S56T, S91T
# B14: 33G8 (antibody, V domains shown)
# VH: QVQLVQSGAEVKKPGSSVKVSCKASGGTFSSSVISWVRQAPGQGLEWMGGIIPIFGTANYAQKFQGRVTITADESTSTAYMELSSLRSEDTAVYYCAREGLGCSGGSCYSGYYYGMDVWGQGTTVTVSS
# VL: DIVMTQSPLSLPVTPGEPASISCRSSQSLLHSNGYNYLDWYLQKPGQSPQLLIYQASTLGSGVPDRFSGSGSGTDFTLKISRVEAEDVGVYYCMQGTHWPYTFGQGTKLEIK
# B15: 34C1 (antibody, V domains shown)
# VH: B14 VH
# VL: DIVMTQSPLSLPVTPGEPASISCRSSESLLYSNGNTYLDWYLQKPGQSPQLLIYEVSNRASGVPDRFSGSGSGTDFTLKISRVEAEDVGVYYCMQGTRWPYTFGQGTKVEIK
# Target: T1, hPD-1-Fc (human, UniProt Q15116 25-167)
# T1 construct: domain: IgV domain; also called human PD-1-Fc; not shown: human IgG1 Fc
# Test: ELISA, hPD-1-Fc coated
# T1 sequence (Q15116 25-167 limits assumed): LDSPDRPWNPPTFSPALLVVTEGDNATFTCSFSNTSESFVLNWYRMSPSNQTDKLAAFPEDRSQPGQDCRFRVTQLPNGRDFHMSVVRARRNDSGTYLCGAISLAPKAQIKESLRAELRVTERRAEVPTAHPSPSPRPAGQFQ
row,Binder,OD at 10 nM [OD]
1,B1,0.921
2,B2,0.922
3,B3,0.952
4,B4,1.06
5,B5,1.03
6,B6,1.02
7,B7,1.08
8,B8,1.08
9,B9,1.06

# Target: T2, hPD-1-his (human, UniProt Q15116 25-167)
# T2 construct: domain: IgV domain; monomer in solution; biotin-labelled where captured by streptavidin; also called biotin-hPD-1-his
# Test: SPR Biacore T200, PD-1-his immobilised
# T2 sequence (Q15116 other isoform, or with tags, fused parts or gaps limits assumed): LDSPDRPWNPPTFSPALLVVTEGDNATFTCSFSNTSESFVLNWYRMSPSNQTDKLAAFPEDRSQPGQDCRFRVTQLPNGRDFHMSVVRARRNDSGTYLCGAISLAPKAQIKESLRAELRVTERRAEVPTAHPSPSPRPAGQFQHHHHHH
row,Binder,Kd [nM]
1,B3,1.44
2,B4,4.82
3,B5,4.93
4,B9,2.58

# Target: T3, human PD-1 expressed on cells (human, UniProt Q15116 25-288)
# T3 construct: whole, on cells
# Test: flow cytometry, SEB-activated PBMC donor one
# T3 sequence (Q15116 25-288): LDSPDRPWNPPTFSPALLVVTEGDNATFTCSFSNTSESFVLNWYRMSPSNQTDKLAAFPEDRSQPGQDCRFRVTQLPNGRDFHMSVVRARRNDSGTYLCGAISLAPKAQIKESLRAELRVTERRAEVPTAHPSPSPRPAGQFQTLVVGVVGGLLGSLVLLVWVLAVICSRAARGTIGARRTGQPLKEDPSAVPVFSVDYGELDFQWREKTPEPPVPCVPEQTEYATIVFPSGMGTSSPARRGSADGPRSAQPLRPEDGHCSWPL
Binder,EC50 [nM],MFI at 100 nM [MFI]
B10,1.51,19.9
B11,13.6,13.7
B12,19,14.6
B13,117,12.4

# Target: T2, hPD-1-his
# Test: ELISA, PD-1-his on anti-his
row,Binder,OD at 10 nM [OD]
1,B1,1.03
2,B2,0.591
3,B3,0.602
4,B4,0.552
5,B5,0.447
6,B6,0.404
7,B7,0.617
8,B8,0.482
9,B9,0.484

# Target: T3, human PD-1 expressed on cells
# Test: flow cytometry, hPD1-293 cells
Binder,EC50 [nM],MFI at 68 nM [MFI]
B10,0.299,105
B11,–,20.8
B12,–,21.8
B13,16,45.1

# Target: T1, hPD-1-Fc
# Test: blocking ELISA, hPD-1-Fc to hPD-L1-Fc
Binder,IC50 [nM],Inhibition % (3.3 nM) [%],Inhibition % (30 nM) [%]
B10,1.85,80.5,93.1
B11,2.69,51.9,85.9
B12,2.61,54.9,86.6
B13,28.1,22.9,65.2

# Target: T2, hPD-1-his
# Test: ELISA, hPD-1-his on anti-his
Binder,EC50 [nM],OD450 at 10 nM [OD450]
B14,0.149,0.487
B15,0.0866,0.521

# Target: T2, hPD-1-his
# Test: ELISA, biotin-hPD-1-his on streptavidin
Binder,EC50 [nM],OD450 at 10 nM [OD450]
B14,0.197,0.909
B15,0.233,0.945

# Target: T1, hPD-1-Fc
# Test: blocking ELISA, hPD-1 to hPD-L1
# Parameters: unit not given here
row,Binder,Inhibition at 50 nM
1,B1,91.1
2,B2,91.7
3,B3,91.9
4,B4,92.8
5,B5,93.2
6,B6,92.7
7,B7,92.9
8,B8,93.3
9,B9,93.2

# Target: T2, hPD-1-his
# Test: ELISA, captured hPD-1-his
Binder,EC50 [nM],OD at 10 nM [OD450]
B10,0.523,1.15
B11,> 100,0.3
B12,1,0.27
B13,5.34,0.38

# Target: T3, human PD-1 expressed on cells
# Test: flow cytometry, SEB-activated PBMC donor three
Binder,EC50 [nM],MFI at 100 nM [MFI]
B10,1.89,80.3
B11,10.7,51.2
B12,13.4,46.2
B13,104,25.2

# Target: T1, hPD-1-Fc
# Test: ELISA, hPD-1-Fc coated
# Remark: another data set of the same source
Binder,EC50 [nM],OD at 10 nM [OD450]
B10,0.135,1.74
B11,0.168,1.81
B12,0.167,2.04
B13,0.188,1.73

# Target: T1, hPD-1-Fc
# Test: ELISA, hPD1-Fc coated
Binder,EC50 [nM],OD450 at 10 nM [OD450]
B14,0.113,0.9
B15,0.147,0.926

# Target: T1, hPD-1-Fc
# Test: SPR Biacore T200, PD-1-Fc immobilised
row,Binder,Kd [nM]
1,B3,0.554
2,B4,0.834
3,B5,1.02
4,B9,0.794

# Target: T2, hPD-1-his
# Test: ELISA, PD-1-his on streptavidin
row,Binder,OD at 10 nM [OD]
1,B1,0.919
2,B2,0.932
3,B3,0.935
4,B4,1
5,B5,1.07
6,B6,1.05
7,B7,0.963
8,B8,0.99
9,B9,0.981

# Target: T3, human PD-1 expressed on cells
# Test: cell-based or functional assay
Binder,"EC 50, Promega PD-1/PD-L1 blockade bioassay [µg/mL]",Fold of induction [fold]
B10,4.73,2.81
B11,2.13,3.04

# Target: T1, hPD-1-Fc
# Test: blocking ELISA, hPD-1-Fc to hPD-L1-Fc
# Remark: another data set of the same source
Binder,IC50 [nM],Inhibition % at 5.6 nM [%],Inhibition % at 50 nM [%]
B14,1.81,89.9,90.5
B15,2.01,89.1,89.3
